These results are taken from paper PMC12311895 (2025).

What is called Kd is the concentration at which binding is half-saturated.

Where no end group is shown, it is not given here.

The target of this assay is T1, MBP-PDZ protein (Erbin PDZ) with a single cysteine, conjugated to DNA (UniProt Q96RT1 1321-1410, ATTO 532 (labelled with ATTO 532-NHS); amine-modified DNA oligonucleotide coupled through sulfo-SMCC to the single cysteine between MBP and PDZ).
T1 chain: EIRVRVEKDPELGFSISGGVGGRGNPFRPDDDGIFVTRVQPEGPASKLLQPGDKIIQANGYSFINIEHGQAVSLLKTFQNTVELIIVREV
Description: FP; no DNA attached to MBP-PDZ.

In turn, CGAGRGSIDTWV (also: ATTO 655 label (site not given here)) [ATTO 655-labeled target peptide] returned a Kd of 200 nM.
